Experimental data published in paper PMC12711580, “Florigen activation complex forms via multifaceted assembly in Arabidopsis” (Nature, 2025).

B1: MBP–FDc(T282E), N-terminal MBP-fused, truncated FD (amino acids 215–285) [Arabidopsis thaliana] / GRF7 (14-3-3ν), recombinant [Arabidopsis thaliana] (parent)
chain 1: NRRHKRMIKNRESAARSRARKQAYTNELELEVAHLQAENARLKRQQDQLKMAAAIQQPKKNTLQRSSEAPF
chain 2: MSSSREENVYLAKLAEQAERYEEMVEFMEKVAKTVDTDELTVEERNLLSVAYKNVIGARRASWRIISSIEQKEESRGNDDHVSIIKDYRGKIETELSKICDGILNLLDSHLVPTASLAESKVFYLKMKGDYHRYLAEFKTGAERKEAAESTLVAYKSAQDIALADLAPTHPIRLGLALNFSVFYYEILNSPDRACSLAKQAFDEAISELDTLGEESYKDSTLIMQLLRDNLTLWNSDINDEAGGDEIKEASKHEPEEGKPAETGQ
B2: MBP–FDc(T282E), N-terminal MBP-fused, truncated FD (amino acids 215–285) [Arabidopsis thaliana] / itself (parent)
chain: B1 chain 1

Variants of: B1
Experiment: SEC-MALS
Conditions: with GRF7 (14-3-3ν), free GRF7 peak marked 60 kD

Row | screen value [kD] | Variant
1 | 168 | chain 1 NRRHKRMIKNRESAARSRARKQAYTNELELEVAHLQAENARLKRQQDQAKMAAAIQQPKKNTLQRSSEAPF [chain 1 L49A]
2 | 116 | chain 1 NRRHKRMIKNRESAARSRARKQAYTNELELEVAHAQAENARLKRQQDQLKMAAAIQQPKKNTLQRSSEAPF [chain 1 L35A]
3 | 117 | chain 1 NRRHKRMIKNRESAARSRARKQAATNELALEVAHLQAENARLKRQQDQLKMAAAIQQPKKNTLQRSSEAPF [chain 1 Y24A E29A]
4 | 117 | chain 1 NRRHKRMIKNRESAARSRARKQAYTNELELEVAHLQAENARAKRQQDQLKMAAAIQQPKKNTLQRSSEAPF [chain 1 L42A]

Variants of: B2
Experiment: SEC-MALS
Conditions: with itself

Row | screen value [kD] | Variant
5 | 55 | NRRHKRMIKNRESAARSRARKQAYTNELELEVAHLQAENARAKRQQDQLKMAAAIQQPKKNTLQRSSEAPF [chain 1 L42A]
6 | 55 | NRRHKRMIKNRESAARSRARKQAATNELALEVAHLQAENARLKRQQDQLKMAAAIQQPKKNTLQRSSEAPF [chain 1 Y24A E29A]
7 | 55 | NRRHKRMIKNRESAARSRARKQAYTNELELEVAHLQAENARLKRQQDQAKMAAAIQQPKKNTLQRSSEAPF [chain 1 L49A]
8 | 55 | NRRHKRMIKNRESAARSRARKQAYTNEAELEVAHLQAENARLKRQQDQLKMAAAIQQPKKNTLQRSSEAPF [chain 1 L28A]
9 | 55 | NRRHKRMIKNRESAARSRARKQAYTNELELEVAHAQAENARLKRQQDQLKMAAAIQQPKKNTLQRSSEAPF [chain 1 L35A]
